This experiment has as its target BK channel α subunit (hSloα1, human slow poke alpha subunit K+ channel) (human) (UniProt Q12791). Description: native gel or EMSA; native SMA-PAGE (4-16% Tris/glycine gradient gel, 150 V, 1 h, room temperature) of Ni-NTA purified SMALPs from HEK293 membranes, followed by western blot with anti-hsloα, anti-hsloβ or anti-his antibodies; subunits co-expressed in cells and extracted together. Background: In EMSA bound probe runs differently from free probe, usually more slowly.

Chain of BK channel α subunit (hSloα1, human slow poke alpha subunit K+ channel), Q12791 1-1236 (natural protein; other documents disagree on this pair) (Q12791 whole entry): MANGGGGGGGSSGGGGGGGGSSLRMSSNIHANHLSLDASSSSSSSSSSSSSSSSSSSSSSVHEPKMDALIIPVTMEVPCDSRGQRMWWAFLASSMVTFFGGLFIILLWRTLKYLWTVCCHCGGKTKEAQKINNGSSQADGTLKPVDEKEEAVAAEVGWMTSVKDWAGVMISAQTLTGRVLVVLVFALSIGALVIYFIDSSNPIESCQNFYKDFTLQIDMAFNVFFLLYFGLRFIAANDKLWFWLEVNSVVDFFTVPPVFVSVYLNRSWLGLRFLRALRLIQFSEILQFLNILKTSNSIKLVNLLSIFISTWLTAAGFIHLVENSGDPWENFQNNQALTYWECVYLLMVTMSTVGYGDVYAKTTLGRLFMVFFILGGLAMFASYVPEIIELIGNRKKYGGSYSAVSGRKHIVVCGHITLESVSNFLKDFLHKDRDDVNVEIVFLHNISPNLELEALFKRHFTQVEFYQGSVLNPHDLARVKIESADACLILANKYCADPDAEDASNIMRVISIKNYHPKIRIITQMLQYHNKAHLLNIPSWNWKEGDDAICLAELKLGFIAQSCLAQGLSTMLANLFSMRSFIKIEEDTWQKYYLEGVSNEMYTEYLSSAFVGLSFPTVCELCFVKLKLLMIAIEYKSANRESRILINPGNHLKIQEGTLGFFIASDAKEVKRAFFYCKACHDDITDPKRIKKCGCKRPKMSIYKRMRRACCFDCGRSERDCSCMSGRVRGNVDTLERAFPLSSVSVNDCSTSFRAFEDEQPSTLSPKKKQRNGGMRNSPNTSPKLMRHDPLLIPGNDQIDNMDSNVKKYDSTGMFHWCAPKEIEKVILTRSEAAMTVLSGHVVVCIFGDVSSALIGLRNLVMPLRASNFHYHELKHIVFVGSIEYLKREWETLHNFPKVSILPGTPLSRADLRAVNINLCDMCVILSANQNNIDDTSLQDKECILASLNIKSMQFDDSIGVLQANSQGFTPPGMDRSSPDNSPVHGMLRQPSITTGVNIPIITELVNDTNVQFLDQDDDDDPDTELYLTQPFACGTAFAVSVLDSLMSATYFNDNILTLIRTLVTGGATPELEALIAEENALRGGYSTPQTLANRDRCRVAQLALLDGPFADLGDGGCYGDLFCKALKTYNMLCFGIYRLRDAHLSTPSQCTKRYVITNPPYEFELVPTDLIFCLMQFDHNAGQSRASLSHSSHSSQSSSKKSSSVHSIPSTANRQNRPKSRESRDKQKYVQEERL

By stoichiometry N is commonly meant a count of units in the complex or per binding partner. Turning to “BK channel α subunit (hSloα1, human slow poke alpha subunit K+ channel), Q12791 1-1236 (natural protein; other documents disagree on this pair)”, the stoichiometry N is 4.

The values are drawn from publication PMC9444072.
